Tests used:
[1] = biological target: Recombinant human his-tagged IGF R extracellular domain protein (human) (UniProt P08069); assay: SPR, Ab captured via anti-huIgG Fc, pH 7.4
[2] = biological target: Recombinant human his-tagged IGF R extracellular domain protein (human) (UniProt P08069); assay: SPR, Ab captured via anti-huIgG Fc, dissociation at pH 6

Binder | Kd [1] [nM] | koff [1] [s⁻¹] | kon [1] [M⁻¹ s⁻¹] | Kd [2] [nM] | koff [2] [s⁻¹] | kon [2] [M⁻¹ s⁻¹]
VRDN-02040 (antibody, V domains shown) VH: QVQLQESGPGLVKPSETLSLTCTVSGYSITGGYLWNWIRQPPGKGLEWIGYISYDGTNNYKPSLKDRVTISRDTSKNQFSLKLSSVTAADTAVYYCARYGRVFFDYWGQGTLVTVSS VL: DIVMTQSPLSLPVTPGEPASISCRSSQSIVHSNGNHYLQWYLQKPGQSPQLLIYKVSNRLYGVPDRFSGSGSGTDFTLKISRVEAEDVGVYYCFQGSHVPWTFGQGTKVEIK | 1.22 | 0.000104 | 85400 | 1.04 | 9.07e-05 | 87000
VRDN-02042 (antibody, V domains shown) VH: QVQLQESGPGLVKPSETLSLTCTVSGYSITGGYLWNWIRQPPGKGLEWIGYISYDGTNNYKPSLKDRVTISRDTSKNQFSLKLSSVTAADTAVYYCARYGRVFFDYWGQGTLVTVSS VL: DIVMTQSPLSLPVTPGEPASISCRSSQSIVHSNGNTYHQWYLQKPGQSPQLLIYKVSNRLYGVPDRFSGSGSGTDFTLKISRVEAEDVGVYYCFQGSHVPWTFGQGTKVEIK | 0.704 | 7.31e-05 | 104000 | 1.08 | 0.000101 | 94100
VRDN-02046 (antibody, V domains shown) VH: QVQLQESGPGLVKPSETLSLTCTVSGYSITGGYLWNWIRQPPGKGLEWIGYISYDGTNNYKPSLKDRVTISRDTSKNQFSLKLSSVTAADTAVYYCARYGRVFFDYWGQGTLVTVSS VL: DIVMTQSPLSLPVTPGEPASISCRSSQSIVHSNGNTYLQWYLQKPGQSPQLLIYKVHNRLYGVPDRFSGSGSGTDFTLKISRVEAEDVGVYYCFQGSHVPWTFGQGTKVEIK | 0.569 | 5.23e-05 | 92000 | 1.29 | 0.000103 | 79900
VRDN-02044 (antibody, V domains shown) VH: QVQLQESGPGLVKPSETLSLTCTVSGYSITGGYLWNWIRQPPGKGLEWIGYISYDGTNNYKPSLKDRVTISRDTSKNQFSLKLSSVTAADTAVYYCARYGRVFFDYWGQGTLVTVSS VL: DIVMTQSPLSLPVTPGEPASISCRSSQSIVHSNGNTYLQWYLQKPGQSPQLLIYHVSNRLYGVPDRFSGSGSGTDFTLKISRVEAEDVGVYYCFQGSHVPWTFGQGTKVEIK | 0.551 | 4.69e-05 | 85200 | 0.759 | 6.27e-05 | 82600
VRDN-02004 (antibody, V domains shown) VH: QVQLQESGPGLVKPSETLSLTCTVSGYSHTGGYLWNWIRQPPGKGLEWIGYISYDGTNNYKPSLKDRVTISRDTSKNQFSLKLSSVTAADTAVYYCARYGRVFFDYWGQGTLVTVSS VL: DIVMTQSPLSLPVTPGEPASISCRSSQSIVHSNGNTYLQWYLQKPGQSPQLLIYKVSNRLYGVPDRFSGSGSGTDFTLKISRVEAEDVGVYYCFQGSHVPWTFGQGTKVEIK | 7.78 | 0.000684 | 87800 | 6.19 | 0.000593 | 95700
VRDN-02049 (antibody, V domains shown) VH: QVQLQESGPGLVKPSETLSLTCTVSGYSITGGYLWNWIRQPPGKGLEWIGYISYDGTNNYKPSLKDRVTISRDTSKNQFSLKLSSVTAADTAVYYCARYGRVFFDYWGQGTLVTVSS VL: DIVMTQSPLSLPVTPGEPASISCRSSQSIVHSNGNTYLQWYLQKPGQSPQLLIYKVSNRHYGVPDRFSGSGSGTDFTLKISRVEAEDVGVYYCFQGSHVPWTFGQGTKVEIK | 0.946 | 7.92e-05 | 83700 | 1.15 | 9.15e-05 | 79500
VRDN-02053 (antibody, V domains shown) VH: QVQLQESGPGLVKPSETLSLTCTVSGYSITGGYLWNWIRQPPGKGLEWIGYISYDGTNNYKPSLKDRVTISRDTSKNQFSLKLSSVTAADTAVYYCARYGRVFFDYWGQGTLVTVSS VL: DIVMTQSPLSLPVTPGEPASISCRSSQSIVHSNGNTYLQWYLQKPGQSPQLLIYKVSNRLYGVPDRFSGSGSGTDFTLKISRVEAEDVGVYYCFQHSHVPWTFGQGTKVEIK | 7.18 | 0.00243 | 338000 | 3.48 | 0.000193 | 55600
VRDN-02045 (antibody, V domains shown) VH: QVQLQESGPGLVKPSETLSLTCTVSGYSITGGYLWNWIRQPPGKGLEWIGYISYDGTNNYKPSLKDRVTISRDTSKNQFSLKLSSVTAADTAVYYCARYGRVFFDYWGQGTLVTVSS VL: DIVMTQSPLSLPVTPGEPASISCRSSQSIVHSNGNTYLQWYLQKPGQSPQLLIYKHSNRLYGVPDRFSGSGSGTDFTLKISRVEAEDVGVYYCFQGSHVPWTFGQGTKVEIK | 1.1 | 6.49e-05 | 59200 | 1.66 | 8.63e-05 | 51900
VRDN-02054 (antibody, V domains shown) VH: QVQLQESGPGLVKPSETLSLTCTVSGYSITGGYLWNWIRQPPGKGLEWIGYISYDGTNNYKPSLKDRVTISRDTSKNQFSLKLSSVTAADTAVYYCARYGRVFFDYWGQGTLVTVSS VL: DIVMTQSPLSLPVTPGEPASISCRSSQSIVHSNGNTYLQWYLQKPGQSPQLLIYKVSNRLYGVPDRFSGSGSGTDFTLKISRVEAEDVGVYYCFQGHHVPWTFGQGTKVEIK | 0.838 | 6.19e-05 | 73900 | 1.14 | 8.07e-05 | 70700
VRDN-02050 (antibody, V domains shown) VH: QVQLQESGPGLVKPSETLSLTCTVSGYSITGGYLWNWIRQPPGKGLEWIGYISYDGTNNYKPSLKDRVTISRDTSKNQFSLKLSSVTAADTAVYYCARYGRVFFDYWGQGTLVTVSS VL: DIVMTQSPLSLPVTPGEPASISCRSSQSIVHSNGNTYLQWYLQKPGQSPQLLIYKVSNRLHGVPDRFSGSGSGTDFTLKISRVEAEDVGVYYCFQGSHVPWTFGQGTKVEIK | 0.603 | 6.7e-05 | 111000 | 1.2 | 9.87e-05 | 82000
VRDN-02043 (antibody, V domains shown) VH: QVQLQESGPGLVKPSETLSLTCTVSGYSITGGYLWNWIRQPPGKGLEWIGYISYDGTNNYKPSLKDRVTISRDTSKNQFSLKLSSVTAADTAVYYCARYGRVFFDYWGQGTLVTVSS VL: DIVMTQSPLSLPVTPGEPASISCRSSQSIVHSNGNTYLHWYLQKPGQSPQLLIYKVSNRLYGVPDRFSGSGSGTDFTLKISRVEAEDVGVYYCFQGSHVPWTFGQGTKVEIK | 0.746 | 6.22e-05 | 83400 | 1.13 | 9.08e-05 | 80400
VRDN-02047 (antibody, V domains shown) VH: QVQLQESGPGLVKPSETLSLTCTVSGYSITGGYLWNWIRQPPGKGLEWIGYISYDGTNNYKPSLKDRVTISRDTSKNQFSLKLSSVTAADTAVYYCARYGRVFFDYWGQGTLVTVSS VL: DIVMTQSPLSLPVTPGEPASISCRSSQSIVHSNGNTYLQWYLQKPGQSPQLLIYKVSHRLYGVPDRFSGSGSGTDFTLKISRVEAEDVGVYYCFQGSHVPWTFGQGTKVEIK | 0.622 | 5.34e-05 | 85900 | 1.48 | 9.84e-05 | 66600
VRDN-02048 (antibody, V domains shown) VH: QVQLQESGPGLVKPSETLSLTCTVSGYSITGGYLWNWIRQPPGKGLEWIGYISYDGTNNYKPSLKDRVTISRDTSKNQFSLKLSSVTAADTAVYYCARYGRVFFDYWGQGTLVTVSS VL: DIVMTQSPLSLPVTPGEPASISCRSSQSIVHSNGNTYLQWYLQKPGQSPQLLIYKVSNHLYGVPDRFSGSGSGTDFTLKISRVEAEDVGVYYCFQGSHVPWTFGQGTKVEIK | 0.55 | 4.17e-05 | 75700 | 1.03 | 8.1e-05 | 78800
VRDN-02041 (antibody, V domains shown) VH: QVQLQESGPGLVKPSETLSLTCTVSGYSITGGYLWNWIRQPPGKGLEWIGYISYDGTNNYKPSLKDRVTISRDTSKNQFSLKLSSVTAADTAVYYCARYGRVFFDYWGQGTLVTVSS VL: DIVMTQSPLSLPVTPGEPASISCRSSQSIVHSNGNTHLQWYLQKPGQSPQLLIYKVSNRLYGVPDRFSGSGSGTDFTLKISRVEAEDVGVYYCFQGSHVPWTFGQGTKVEIK | 0.795 | 7.59e-05 | 95500 | 1.16 | 0.000102 | 87800
VRDN-02005 (antibody, V domains shown) VH: QVQLQESGPGLVKPSETLSLTCTVSGYSIHGGYLWNWIRQPPGKGLEWIGYISYDGTNNYKPSLKDRVTISRDTSKNQFSLKLSSVTAADTAVYYCARYGRVFFDYWGQGTLVTVSS VL: DIVMTQSPLSLPVTPGEPASISCRSSQSIVHSNGNTYLQWYLQKPGQSPQLLIYKVSNRLYGVPDRFSGSGSGTDFTLKISRVEAEDVGVYYCFQGSHVPWTFGQGTKVEIK | 0.71 | 6.09e-05 | 85800 | 1.16 | 0.000119 | 102000
VRDN-02052 (antibody, V domains shown) VH: QVQLQESGPGLVKPSETLSLTCTVSGYSITGGYLWNWIRQPPGKGLEWIGYISYDGTNNYKPSLKDRVTISRDTSKNQFSLKLSSVTAADTAVYYCARYGRVFFDYWGQGTLVTVSS VL: DIVMTQSPLSLPVTPGEPASISCRSSQSIVHSNGNTYLQWYLQKPGQSPQLLIYKVSNRLYGVPDRFSGSGSGTDFTLKISRVEAEDVGVYYCFHGSHVPWTFGQGTKVEIK | 0.564 | 5.7e-05 | 101000 | 1.33 | 0.000156 | 117000
VRDN-02051 (antibody, V domains shown) VH: QVQLQESGPGLVKPSETLSLTCTVSGYSITGGYLWNWIRQPPGKGLEWIGYISYDGTNNYKPSLKDRVTISRDTSKNQFSLKLSSVTAADTAVYYCARYGRVFFDYWGQGTLVTVSS VL: DIVMTQSPLSLPVTPGEPASISCRSSQSIVHSNGNTYLQWYLQKPGQSPQLLIYKVSNRLYGVPDRFSGSGSGTDFTLKISRVEAEDVGVYYCHQGSHVPWTFGQGTKVEIK | 1.03 | 7.59e-05 | 74000 | 1.3 | 8.62e-05 | 66600

Source: US20240360227A1
